# Measured values published in patent publication US9637764B2, “Methods of producing 7-carbon chemicals via carbon chain elongation associated with cyclohexane carboxylate synthesis” (INVISTA North America S.á r.l., priority 2012, dated 2017).
# Legend:
# Format in all cases: biochemical
# [1] = Carboxylate reductase activity assay, N7-acetyl-7-aminoheptanoate to N7-acetyl-7-aminoheptanal (NADPH consumption, absorbance at 340 nm); conditions: purified enzyme enhanced by the gene product of sfp, 2 mM N7-acetyl-7-aminoheptanoate, 1 mM ATP, 1 mM NADPH, pH=7.5, room temperature, 20 min; against the empty vector control; FIG. 12
# Procedure: The activity of each of the N-terminal His-tagged carboxylate reductases of SEQ ID NOs: 3, 6, and 7 (see Examples 4, and FIGS. 7B, 7E, and 7F) for converting N7-acetyl-7-aminoheptanoate to N7-acetyl-7-aminoheptanal was assayed in triplicate in a buffer composed of a final concentration of 50 mM HEPES buffer (pH=7.5), 2 mM N7-acetyl-7-aminoheptanoate, 10 mM MgCl2, 1 mM ATP, and 1 mM NADPH. The assays were initiated by adding purified carboxylate reductase and phosphopantetheine transferase or the empty vector control to the assay buffer containing the N7-acetyl-7-aminoheptanoate then incubated at room temperature for 20 min. The consumption of NADPH was monitored by absorbance at 340 nm.
# [2] = Carboxylate reductase activity assay, pimelate semialdehyde to heptanedial (NADPH consumption, absorbance at 340 nm); conditions: purified enzyme enhanced by the gene product of sfp, 2 mM pimelate semialdehyde, 1 mM ATP, 1 mM NADPH, pH=7.5, room temperature, 20 min; against the empty vector control; FIG. 13
# Procedure: The N-terminal His-tagged carboxylate reductase of SEQ ID NO 7 (see Example 4 and FIG. 7F) was assayed using pimelate semialdehyde as substrate. The enzyme activity assay was performed in triplicate in a buffer composed of a final concentration of 50 mM HEPES buffer (pH=7.5), 2 mM pimelate semialdehyde, 10 mM MgCl2, 1 mM ATP and 1 mM NADPH. The enzyme activity assay reaction was initiated by adding purified carboxylate reductase and phosphopantetheine transferase or the empty vector control to the assay buffer containing the pimelate semialdehyde and then incubated at room temperature for 20 min. The consumption of NADPH was monitored by absorbance at 340 nm.
# [3] = Carboxylate reductase activity assay, pimelate to pimelate semialdehyde (NADPH consumption, absorbance at 340 nm); conditions: purified enzyme enhanced by the gene product of sfp, 2 mM pimelate, 1 mM ATP, 1 mM NADPH, pH=7.5, room temperature, 20 min; against the empty vector control; FIG. 10
# Procedure: A sequence encoding a HIS-tag was added to the genes from Segniliparus rugosus and Segniliparus rotundus that encode the carboxylate reductases of SEQ ID NOs: 4 and 7, respectively (see FIGS. 7C and 7F), such that N-terminal HIS tagged carboxylate reductases could be produced. Each of the modified genes was cloned into a pET Duet expression vector along with a sfp gene encoding a HIS-tagged phosphopantetheine transferase from Bacillus subtilis, both under the T7 promoter. Each expression vector was transformed into a BL21[DE3] E. coli host and the resulting recombinant E. coli strains were cultivated at 37° C. in a 250 mL shake flask culture containing 50 mL LB media and antibiotic selection pressure, with shaking at 230 rpm. Each culture was induced overnight at 37° C. using an auto-induction media.
# The pellet from each induced shake flask culture was harvested via centrifugation. Each pellet was resuspended and lysed via sonication, and the cell debris was separated from the supernatant via centrifugation. […]
# Enzyme activity assays (i.e., from pimelate to pimelate semialdehyde) were performed in triplicate in a buffer composed of a final concentration of 50 mM HEPES buffer (pH=7.5), 2 mM pimelate, 10 mM MgCl2, 1 mM ATP and 1 mM NADPH. […] The consumption of NADPH was monitored by absorbance at 340 nm.
molecule,measurement,setting,value
"SEQ ID NO 7: Segniliparus rotundus carboxylate reductase, Genbank Accession No. ADG98140.1 (protein, listed as Segniliparus rotundus) MTQSHTQGPQASAAHSRLARRAAELLATDPQAAATLPDPEVVRQATRPGLRLAERVDAILSGYADRPALGQRSFQTVKDPITGRSSVELLPTFDTITYRELRERATAIASDLAHHPQAPAKPGDFLASIGFISVDYVAIDIAGVFAGLTAVPLQTGATLATLTAITAETAPTLFAASIEHLPTAVDAVLATPSVRRLLVFDYRAGSDEDREAVEAAKRKIADAGSSVLVDVLDEVIARGKSAPKAPLPPATDAGDDSLSLLIYTSGSTGTPKGAMYPERNVAHFWGGVWAAAFDEDAAPPVPAINITFLPLSHVASRLSLMPTLARGGLMHFVAKSDLSTLFEDLKLARPTNLFLVPRVVEMLYQHYQSELDRRGVQDGTREAEAVKDDLRTGLLGGRILTAGFGSAPLSAELAGFIESLLQIHLVDGYGSTEAGPVWRDGYLVKPPVTDYKLIDVPELGYFSTDSPHPRGELAIKTQTILPGYYKRPETTAEVFDEDGFYLTGDVVAQIGPEQFAYVDRRKNVLKLSQGEFVTLAKLEAAYSSSPLVRQLFVYGSSERSYLLAVIVPTPDALKKFGVGEAAKAALGESLQKIARDEGLQSYEVPRDFIIETDPFTVENGLLSDARKSLRPKLKEHYGERLEAMYKELADGQANELRDIRRGVQQRPTLETVRRAAAAMLGASAAEIKPDAHFTDLGGDSLSALTFSNFLHDLFEVDVPVGVIVSAANTLGSVAEHIDAQLAGGRARPTFATVHGKGSTTIKASDLTLDKFIDEQTLEAAKHLPKPADPPRTVLLTGANGWLGRFLALEWLERLAPAGGKLITIVRGKDAAQAKARLDAAYESGDPKLAGHYQDLAATTLEVLAGDFSEPRLGLDEATWNRLADEVDFISHPGALVNHVLPYNQLFGPNVAGVAEIIKLAITTRIKPVTYLSTVAVAAGVEPSALDEDGDIRTVSAERSVDEGYANGYGNSKWGGEVLLREAHDRTGLPVRVFRSDMILAHQKYTGQVNATDQFTRLVQSLLATGLAPKSFYELDAQGNRQRAHYDGIPVDFTAESITTLGGDGLEGYRSYNVFNPHRDGVGLDEFVDWLIEAGHPITRIDDYDQWLSRFETSLRGLPESKRQASVLPLLHAFARPGPAVDGSPFRNTVFRTDVQKAKIGAEHDIPHLGKALVLKYADDIKQLGLL",carboxylate reductase activity for converting N7-acetyl-7-aminoheptanoate to N7-acetyl-7-aminoheptanal,[1],accepted N7-acetyl-7-aminoheptanoate as substrate
same,carboxylate reductase activity for converting pimelate semialdehyde to heptanedial,[2],accepted pimelate semialdehyde as substrate
same,carboxylate reductase activity for converting pimelate to pimelate semialdehyde,[3],accepted pimelate as substrate
